{"source": "IntAct's records for PubMed 16002617", "parents": {"B1": {"name": "Cyclic dof factor 1 (Arabidopsis thaliana (Mouse-ear cress)), Q8W1E3 (parent)", "chain": "MLETKDPAIKLFGMKIPFPTVLEVADEEEEKNQNKTLTDQSEKDKTLKKPTKILPCPRCNSMETKFCYYNNYNVNQPRHFCKACQRYWTSGGTMRSVPIGAGRRKNKNNSPTSHYHHVTISETNGPVLSFSLGDDQKVSSNRFGNQKLVARIENNDERSNNNTSNGLNCFPGVSWPYTWNPAFYPVYPYWSMPVLSSPVSSSPTSTLGKHSRDEDETVKQKQRNGSVLVPKTLRIDDPNEAAKSSIWTTLGIKNEVMFNGFGSKKEVKLSNKEETETSLVLCANPAALSRSINFHEQM"}}, "data": [{"variants_of": "B1", "conditions": "with ado3_arath ADO3, Q9C9W9", "values": [{"variant": "MLETKDPAIKLFGMKIPFPTVLEVADEEEEKNQNKTLTDQSEKDKTLKKPTKILPCPRCNSMETKFCYYNNYNVNQPRHFCKACQRYWTSGGTMRSVPIGAGRRKNKNNSPTSHYHHVTISETNGPVLSFSLGDDQKVSSNRFGNQKLVARIENNDERSNNNTSNGLNCFPGVSWPYTWNPAFYPVYPYWSMPVLSSPVSSSPTSTLGKHSRDEDETVKQKQRNGSVLVPKTLRIDDPNEAAKSSIWTTLGIANEVMFNGFGSKKEVKLSNKEETETSLVLCANPAALSRSINFHEQM", "note": "[K253A]", "effect of a mutation on the interaction": "decreasing interaction"}]}]}
